The results in this text go back to the RNAGym collection of RNA variant scans (doi:10.7554/elife.90254).

B1: LINE1-mini (parent)
chain: GGCAGAGCUCAACACAGCGUGGCAAAGUGGCUGUGGCUAGACUGCC

The variants in the series derive from B1. In words: self-cleavage, relative activity (ratio to wild type); higher = more cleavage; in vitro, sequencing; the parent is a self-cleaving ribozyme.
As for A25G G35A, the self-cleavage came to 0.11.

For A25G G35U, the self-cleavage worked out at 0.06.

Regarding A25G G35C, the self-cleavage stood at 0.04.

As to A25C C42U, the self-cleavage amounted to 0.41.

Take A25C C42A: the self-cleavage is 0.11.

On to A25C C42G, for which the self-cleavage amounted to 0.04.

Regarding A26C U38C, the self-cleavage is 0.83.

As for A26C U38A, the self-cleavage was 1.02.

A26C U38G: the self-cleavage is 0.03.

Regarding A26G, the self-cleavage was 0.87.

Regarding A26C, the self-cleavage came out at 0.9.

As to A26U, the self-cleavage is 1.27.

As to A25C C45U, the self-cleavage worked out at 0.49.

For the variant A25C C45G, the self-cleavage was determined as 0.11.

In the case of A25C C45A, the self-cleavage was determined as 0.23.

As to A25C G35C, the self-cleavage was 0.1.

On to A25C G35U, for which the self-cleavage was determined as 0.12.

In the case of A25C G35A, the self-cleavage came out at 0.11.

A26G U43C: the self-cleavage came to 0.05.

As for A26G U43A, the self-cleavage stood at 0.07.

As to A26G U43G, the self-cleavage turned out to be 0.03.

Turning to A25G G33A, the self-cleavage worked out at 0.04.

A25G G33C: the self-cleavage worked out at 0.04.

In the case of A25G G33U, the self-cleavage was determined as 0.05.

Take A26C G40A: the self-cleavage was found to be 0.12.

Turning to A26C G40U, the self-cleavage is 0.09.

Consider A26C G40C, for which the self-cleavage amounted to 0.07.

Consider A26G C46A, for which the self-cleavage was 1.08.

A26G C46G: the self-cleavage is 1.53.

For A26G C46U, the self-cleavage was determined as 0.58.

With A26G U32A, the self-cleavage was determined as 0.08.

On to A26G U32G, for which the self-cleavage amounted to 0.18.

Turning to A26G U32C, the self-cleavage came out at 0.18.

Consider A26U C37G, for which the self-cleavage is 0.05.

Consider A26U C37A, for which the self-cleavage is 0.08.

Consider A26U C37U, for which the self-cleavage turned out to be 0.08.

A25G A39C: the self-cleavage stood at 0.22.

As to A25G A39G, the self-cleavage is 0.07.

In the case of A25G A39U, the self-cleavage stood at 0.81.

As for A26C C46G, the self-cleavage is 0.75.

For A26C C46U, the self-cleavage was 1.46.

A26C C46A: the self-cleavage amounted to 0.83.

A25G G40C: the self-cleavage came out at 0.06.

On to A25G G40U, for which the self-cleavage turned out to be 0.07.

On to A25G G40A, for which the self-cleavage came to 0.04.

Consider A26G C31A, for which the self-cleavage is 0.11.

A26G C31G: the self-cleavage came to 0.06.

With A26G C31U, the self-cleavage came to 0.15.

For the variant A26U A39G, the self-cleavage worked out at 0.22.

In the case of A26U A39C, the self-cleavage was found to be 0.25.

Turning to A26U A39U, the self-cleavage came to 2.46.

A25U A26C: the self-cleavage was 1.79.

As to A25U A26U, the self-cleavage was determined as 1.23.

For A25U A26G, the self-cleavage came out at 0.71.

Consider A25C U28C, for which the self-cleavage is 0.44.

A25C U28A: the self-cleavage turned out to be 1.37.

Regarding A25C U28G, the self-cleavage is 0.65.

A25U G27U: the self-cleavage was 0.74.

For the variant A25U G27A, the self-cleavage was found to be 0.59.

In the case of A25U G27C, the self-cleavage worked out at 0.52.

Turning to A26C A39G, the self-cleavage turned out to be 0.05.

Consider A26C A39C, for which the self-cleavage was 0.09.

Consider A26C A39U, for which the self-cleavage was 0.43.

With A26G G36A, the self-cleavage was determined as 0.28.

With A26G G36C, the self-cleavage amounted to 0.07.

On to A26G G36U, for which the self-cleavage is 0.12.

As for A25U G40U, the self-cleavage is 0.14.

Consider A25U G40A, for which the self-cleavage stood at 0.18.

For A25U G40C, the self-cleavage stood at 0.09.

As to A26C G44U, the self-cleavage is 0.28.

With A26C G44A, the self-cleavage came out at 0.87.

As for A26C G44C, the self-cleavage was determined as 0.35.

A26C G33C: the self-cleavage came out at 0.07.

Take A26C G33U: the self-cleavage worked out at 0.08.

Take A26C G33A: the self-cleavage came out at 0.17.

For the variant A26G G29A, the self-cleavage was 0.36.

Take A26G G29C: the self-cleavage worked out at 0.89.

Turning to A26G G29U, the self-cleavage amounted to 1.23.

With A25U G35A, the self-cleavage was 0.12.

For the variant A25U G35C, the self-cleavage was 0.09.

For A25U G35U, the self-cleavage came out at 0.16.

Take A25U U32C: the self-cleavage worked out at 0.27.

Consider A25U U32A, for which the self-cleavage is 0.04.

For the variant A25U U32G, the self-cleavage turned out to be 0.3.

Take A25G A41G: the self-cleavage worked out at 0.26.

For the variant A25G A41U, the self-cleavage worked out at 0.19.

In the case of A25G A41C, the self-cleavage was 0.04.

On to A25U C31G, for which the self-cleavage is 0.1.

A25U C31A: the self-cleavage is 0.13.

Regarding A25U C31U, the self-cleavage worked out at 0.23.

Turning to A26G G30C, the self-cleavage amounted to 1.27.

On to A26G G30A, for which the self-cleavage is 2.6.

Turning to A26G G30U, the self-cleavage was found to be 1.61.

As for A25G G44C, the self-cleavage was determined as 0.19.

As to A25G G44U, the self-cleavage was found to be 0.28.

Turning to A25G G44A, the self-cleavage came to 0.21.

As for A26C U28G, the self-cleavage stood at 0.66.

As for A26C U28C, the self-cleavage worked out at 0.4.

For A26C U28A, the self-cleavage worked out at 0.53.

Turning to A26U G29A, the self-cleavage was 1.35.

On to A26U G29U, for which the self-cleavage was 1.61.

Take A26U G29C: the self-cleavage is 0.35.

As to A25G C42A, the self-cleavage turned out to be 0.09.

Turning to A25G C42G, the self-cleavage turned out to be 0.05.

In the case of A25G C42U, the self-cleavage is 0.26.

Consider A26G C42G, for which the self-cleavage came to 0.05.

As for A26G C42U, the self-cleavage stood at 0.13.

Regarding A26G C42A, the self-cleavage came out at 0.08.

In the case of A25U, the self-cleavage stood at 1.21.

On to A25G, for which the self-cleavage is 0.73.

Turning to A25G U38G, the self-cleavage amounted to 0.01.

On to A25G U38C, for which the self-cleavage worked out at 0.14.

In the case of A25G U38A, the self-cleavage is 0.46.

Turning to A25C G33A, the self-cleavage is 0.05.

As for A25C G33U, the self-cleavage worked out at 0.15.

Regarding A25C G33C, the self-cleavage came to 0.04.

As to A26G U38C, the self-cleavage was determined as 0.44.

As to A26G U38G, the self-cleavage is 0.01.

Take A26G U38A: the self-cleavage is 0.52.

As to A26C G27A, the self-cleavage turned out to be 0.57.

A26C G27U: the self-cleavage was 0.46.

Take A26C G27C: the self-cleavage is 0.9.

On to A26C C37U, for which the self-cleavage stood at 0.07.

Turning to A26C C37G, the self-cleavage worked out at 0.02.

As to A26C C37A, the self-cleavage was found to be 0.05.

Consider A26C U34C, for which the self-cleavage came out at 0.33.

For A26C U34A, the self-cleavage is 0.1.

Take A26C U34G: the self-cleavage is 0.32.

Consider A25U C37U, for which the self-cleavage is 0.03.

As to A25U C37A, the self-cleavage was 0.06.

With A25U C37G, the self-cleavage was 0.02.

In the case of A26U C42U, the self-cleavage was found to be 0.08.

Take A26U C42G: the self-cleavage stood at 0.1.

As to A26U C42A, the self-cleavage worked out at 0.29.

In the case of A25U C42U, the self-cleavage was found to be 0.4.

A25U C42G: the self-cleavage was determined as 0.06.

A25U C42A: the self-cleavage was 0.24.

As to A25C U43A, the self-cleavage amounted to 0.09.

Consider A25C U43G, for which the self-cleavage was determined as 0.12.

Consider A25C U43C, for which the self-cleavage turned out to be 0.04.

With A26G G33A, the self-cleavage turned out to be 0.09.

A26G G33C: the self-cleavage was determined as 0.08.

A26G G33U: the self-cleavage is 0.07.

For A25C G27A, the self-cleavage came to 0.55.

On to A25C G27U, for which the self-cleavage amounted to 0.46.

For the variant A25C G27C, the self-cleavage was 0.39.

In the case of A26G G40U, the self-cleavage is 0.15.

For A26G G40A, the self-cleavage was determined as 0.14.

Take A26G G40C: the self-cleavage stood at 0.08.

As for A26C G35A, the self-cleavage came out at 0.18.

As for A26C G35C, the self-cleavage was found to be 0.16.

As to A26C G35U, the self-cleavage was determined as 0.09.

As for A25U C46A, the self-cleavage is 1.01.

Regarding A25U C46U, the self-cleavage turned out to be 1.04.

With A25U C46G, the self-cleavage came out at 0.66.

As for A25C U34G, the self-cleavage came out at 0.06.

Take A25C U34C: the self-cleavage came to 0.08.

Consider A25C U34A, for which the self-cleavage came to 0.12.

Regarding A25U G33U, the self-cleavage was 0.13.

Regarding A25U G33C, the self-cleavage came out at 0.04.

With A25U G33A, the self-cleavage was found to be 0.12.

As to A25G C37U, the self-cleavage was determined as 0.06.

A25G C37G: the self-cleavage worked out at 0.03.

With A25G C37A, the self-cleavage turned out to be 0.05.

Regarding A26U A41U, the self-cleavage is 0.75.

For A26U A41G, the self-cleavage was 0.37.

As for A26U A41C, the self-cleavage is 0.07.
